Results published in the nanobody polyreactivity screen of Harvey et al. (2022).

Test: yeast display, Sf9 membrane polyspecificity reagent, FACS + sequencing; frameworks hold sequencing errors
Procedure, shortened: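 Galactose-induced (36–48 hours) yeast carrying a synthetic nanobody display library were exposed to 10% biotinylated, detergent-solubilized Sf9 membrane reagent at 4 °C for 1 hour. FACS followed streptavidin microbead enrichment, using low and high (top ~1%) gates for expression (anti-HA) and reagent binding (streptavidin). Colony PCR, MiSeq 2 × 250 sequencing and CDR-length filtering followed. Labels for polyreactivity reflect the gate of origin.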

Row | Sequence | polyreactivity (PSR sort gate)
1 | QVQLVESGGGLVQAGGSLRLSCAASGSIFFPYAMGWYRQAPGKERELVAAITRSGGRTYYADSVKGRFTISRDNAKNTVYLQMNSLKPEDTAVYYCAAGPWYNFYDSRPWFSYDYWGQGTQVTVSS | low polyreactivity
2 | QVQLVESGGGLVQAGGSLRLSCAASGSIFDYYAMGWYRQAPGKERELVAAIRRIGGITYYADSVKGRFTISRDNAKNTVYLQMNSLKPEDTAVYYCNVLVKHSTTTYSTYDYWGQGTQVTVSS | high polyreactivity
3 | QVQLVESGGGLVQAGGSLRLSCAASGFIFKVNAMGWYRQAPGKERELFAAISRRGVTTYYADSVKGRFTISRDNAKNTVYLQMNSLKPEDTAVYYCNRARSYGDTDKLAILADDYWGQGTKVTVSS | high polyreactivity
4 | QVQLVESGGGLVQAGGSLRLSCAASGSIFYRYAMGWSRQAPGKERELVAAISSGSSTHYADSVKGRFTMSRDNAKNTVYLQMNSLKPEDTAVYYCAARYRAYTSTRRFDYWGQGTQVTVSS | high polyreactivity
5 | QVQLVESGGGLVQAGGSLRLSCAASGLIFVSYAMGWYRQAPGKERELVASITDSDSSTYYADSVKGRFTISRDNAKNTVYLQMNSLKPEDTAVYYCATGGRTEIWYPTLDYWGQGTQVTVSS | low polyreactivity
6 | QVQLVESGGGLVQAGGSLRLSCSASGFTFRTYAMGWYRQAPGKETELVAAISRDGSSTYYADSVKGRFTISRDNAKNTVYLQLKSLKPEDTAVYYCAARIIRFYTSADKLVTSRYYYWGQGTQVTVSS | high polyreactivity
7 | QVQLVESGGGLVQAGGSLRLSCAASGSIFVYNDMGGYRQAPGKERELVAGIDWSGDRTYADSVKGRFTISRDNAKNTVYLQMNSLKPEDTAVYYCIADEWRWDEILPYAVDYWGQGTQVTVSS | low polyreactivity
8 | QVQLVESGVGLVQAGGSLRLSCAASGITFDENTMGWYIQAPGKERELVAAITEIGGSTYYADSVKGRFTISRDNAKNTVYLQMNSLKPEDTAVYYCNADRWVVRFVDYEYWGQGTQVTVSS | low polyreactivity
9 | QVQLQESGGGLMQAGGSQRLSCAASGSITYYSDMGCYRQAPGKELEFVAAIGYGTTTNYADSVKGRFTTSRDNAKYTVYLQMISMKPEDTAVYYCAAYQGKGYEFYYWGQGTQVTVRS | low polyreactivity
10 | QVQLVESGGGLVQAGGSLRLSCAASGSIFTRNAMGWYRQAPGKERELVATITSNDGSTNYADSVKGRFTISRDNAKNTVYLQMNSLKPEDTAVYYCNRSYGVYSEFDYWGQGTQVTVSS | low polyreactivity
11 | QVQLVESGGGLVQAGGSLRLSCAASGSIFIGNAMGWYRQAPGKERELVAVISKGGGRTYYADSVKGRFTISRDNAKNTVYLQMNSLKPEDSAVYYCNTRNPHRGDYWGQGTQVTVSS | high polyreactivity
12 | HVQLVESGGGLVQAGGSLRLSCAASGSTFSRYAMGWYRQAPGKERELVAAISSSGGSTYYADSVKGRFTISRDNAKNTVYLQMNSLKPEDTAVYYCAARQYFFSSWRFDYWGQGTQVTVSS | high polyreactivity
13 | QLQLVESGGGLVQAGGSLRLSCAASGSIYYEKVMGWYRQAPGKERELVAGISRSGGRTYYADSVKGRFTISRDNAKNTVYLQMNSLKPEDTAVYYCAALTPRNRYRKFDYWGQGTQVTVSS | high polyreactivity
14 | QVQLVESGGGLVQAGGSLRLSCAASGSTFDGYAMGWSRQAPGKERELVAAITFDGSSTYYADSVKGRFTISRDNAKNTVYLQMNSLKPEDTAVYYCAAASSYWVLWDDYWGQGTQVTVSS | low polyreactivity
15 | QVQLVESGGGLVQAGGSLRLSCAASGFIFGQYAMGWSRQAPGKERELVAAISESGGRTYYADSVKGRFTISRDNAKNTVYLQMNSLKPEDTAVYYCAADKSKYRAFDYWGQGTQVTVSS | high polyreactivity
16 | QVQHVESGGGLVQAGGSLPLSCAASGFIFTSNSMGWYRQAPGKESEFVAAITSGGITYYADSVKGRFTISRDNAKNTVYLQMNSLKPEDTAVYYCAAVLSYQTPKYYRWRYGYWGQGTQVTVSS | low polyreactivity
17 | QVQLVESGGGLVQAGGSLRLSCAASGFIIRRYAMGWYRPAPGKERELVARISFRGGSTYYADSVKGRFTISRDNAKNTVYLQMNSLKPEATAVYYCNRDPLYSKVVDGDYWGHGTQVTVSS | high polyreactivity
18 | QVQLVESGGGLVQAGGSLRLSCAASGRIFPQYAMGWSRQAPGKERELVAGITSVGSTYYADSVKGRFTISRDNAKNTVYLQMNSLKPEDTAVYYCAAVPSRYVRANRRTYRYYYWGQGTQVTVSS | high polyreactivity
19 | QDQLVESGGGLVQAGGSLRLSFAASGSTFFTYPMGWYRQDPGKERELVAAITLNGGSTYYADSVKGRFTISRDNAKNTVYLQMISLKPEDTAVYYCAAEVPDTDYNYWGQGTQVTVSS | low polyreactivity
20 | QVQLVESGGGLVQAGGSLRLSCAASGSTFNRYAMGWYRQAPGKERELVAAISSRGGRTYYADSVKGRFTISRDNAKNTVYLQMNSLKPEDTAVYYCAADSSIDYDWGQGTQVTVSS | high polyreactivity
21 | QVQLVESGGGLVQSGGSLRLSCAASGLIFTSYAMGWYRQAPGKERELVAAISYSGGTTFYADYVKGRFTISRDNAKNTVYLQMNSLKPEDTAVYYCAADSLSTTHDTLGYDRDDYWGQGTQVTVSS | low polyreactivity
22 | QVQLVESGGGLVQAGGSLRLSCAASGITFNSYAKGWYRQAPGKERELVASISWIGGSTYYADSVKLRFTISRDNAKNTVYLQMNSLKPEDTAVYYCAVDKGTDYYYEVDYWGQGTQVTVSS | low polyreactivity

Row | Sequence | polyreactivity (PSR sort gate)
23 | QVQLVESGGGLVQAGGSLRLSCAASGYIFRFNAMGWYRQAPGKERELVAVNTSGARTYYADSVKGRFTISRDNAKNTVYLQMNSLKPEDTAVYYCNAGARRYLYDYWGQGTQVTVSS | low polyreactivity
24 | QVQLVESGGGLVQAGGSLRLSCAASGFIFSKYGMGWYRQAPGKERELVAAISIRGGNTYYADSVKGRFTISRDNAKNTFYLQMYSLKPEDTAVYYCAAGLRAYPYGTRSGVYYYWGQGTQVTVSS | high polyreactivity
25 | QVQLVESGGGLVQAGGSLRLSCAASGFTFSTYAMGWYRQAPGKESELVAAITRSGGSTYYADSVKGRFTISRDIEKNTVYLQMNSLKQEDTAVYYCATDASFYDPDLYPYGYDYWGQGTQVTVSS | high polyreactivity
26 | QVQIVDSCGGLVQSGGSLRLSCDASGSTFLTNSMGWYRQAPGKERELVAAITLRGGRTYYADSVKGRFTISRDNALNTVYLQMNSLKPEDSAVYYCNARNYYYPSDRDYWGQGTQVTVSS | low polyreactivity
27 | QVQLVESGGGLVQAGGSLRLSCAASGRIFDSNAMGWYRQAPGKERELVATISYRGGRTYYADSVKGRFTISRDNAKNTVYLQMNSLKPEDTAVYYCAVRYWVSGFRAGYYWGQGTQVTVSS | high polyreactivity
28 | QVQLVESGGGLVQAGGSLRLSCAASGRIFAYYAMGWYRQAPGKERELVAVISKSGGSTNYADSVKGRFTISRDYAKNTVYLQMNSLKPEDTAVYYCAKRAYDPEMYYWGQGTQVTVSS | low polyreactivity
29 | QVQLVESGGGLVQAGGSLRLSCAASGIIIDYYAMGWYRQAPGKERELVAAITSGGSTSYADSVKGRFTISRDNAKNTVYLQMNSLKPEDTAVYYCNTEPSGYESGYWGQGTQVTVSS | low polyreactivity
30 | QVQLVESGGGLVQAGGSLRLSCAASGGTVYRNAMGWYRQAPGKERELVAAITRSGSTNYADSVKGRFTISRDNAKNTVYLQMNSLKPEDTAVYYCAAKFFRNTYSYGMDYWGQGTQVTVSS | high polyreactivity
31 | QVQLVESGGGLVQAGGSLRLSCAASGSIFSSYVMGWYRQAPGKERELVAAITFSGATTYYADSVKGRFTISRDNAKNTVYLQMNSLKPEDTAVYYCATKAYTTGRYYWGQGTQVTVSS | high polyreactivity
32 | QVQLVESGGGLVQAGGSLRLSCAASGFSFFKYAMGWYRQAPGKERELVAAISSSGGSTYYADSVKGRFTISRDNAKKTVYLQMNSLKPEDTAVYYCAVDNLKCRAQSLDGFDYWGQGTQVTVSS | high polyreactivity
33 | QVQLVESGGGLVQAGGSLRLSCAASGSIFTPNTMGWYRQAPGKEREFVAAITFSGGSTYYADSVKGRFTISRDNAKNTVYLQMNSLKPEDTAVYYCAAVYPTYDWYTPAYYYWGQGTQVTVSS | low polyreactivity
34 | QVQLVESGGGLVQAGGSLRLSCAASGRIFGVYAMGWYRQAPGKERELVADITRGGGSTYYADSVKGRFTISRDNAKNTVYLQMNSLKPEDTAVYYCAARYRFQRGGYYYWGQGTQVTVSS | high polyreactivity
35 | QVQLVESGGGLVQAGGSLRLSCAASGITFGYYAMGWYRQAPGKERELVASISWSGDSTYYADSVKGRFTISRDNAKNTVYLQMNSLKPEDTAVYYCNRGSSWEYGAEYNYWGQGTQVTVSS | low polyreactivity
36 | QVQLVESGGGLVQAGGSHRLSCAASGIISPFYAMGWYRQAPGKERELVADISTGGTTTYADSVKGRFTISRDNAKNTVYLQMNSLKPEDTAVYYCNAEVSLTYYWIVWASYDYWGQGTQVTVSS | low polyreactivity
37 | QVQLVESGGGLVQAGGSHRLSCAASGFTIYGNAMGWYRQAPGKERELVAAISGSGGITYYADSVKGRFTISRDNAKNTVYLQMNSLKPEDTAVYYCAAEFWVSRSIWLYYYWGQGTQVTVSS | high polyreactivity
38 | QDQLVESGGGLVQAGVSLRLSCAASGSTFAYITMGRYRQAPGKERELVAAISWRGTRTYYADSVKGRFTISRDNAKNNVYLQMNSLKPEDTAVYYCATKDGISYDYWVQGTQVTVSS | high polyreactivity
39 | QVQLVESGGGLVQAGGSLRLSCAASGSTFTDYDMGWYRQAPGKERELVAAITSGGSTNYADSVKGRITISRDNAKNTVYLQMNSLKPEDTAVYYCAAADADRKYDYWGQGTQVTVSS | low polyreactivity
40 | QVQLVESGGGLVQAGGSLRLSCAASGRTFSLNAMGWYRQAPGKEREFVAAISSTGGSTYYADSVKGRFTISRDNAKNTVYLQMNSLKPEDTAVYYCAKRSVYRTALGRYSVAYDYWGQGTQVTVSS | high polyreactivity
41 | QVQLVESGGGLVQAGGSLRLSCAASGYFDRNAMGWDRQAPGKERELVAAITVGGSTNYADSVKGRFTISRDNAKNSVYVQMNSLKPEDTAVYYCAADRGHTILHGGYWGQGTQVTVSS | low polyreactivity
42 | QVQLVESGGGLVQAGGSLRLSCAASGSTFGYNAMGWYRQAPGKERELVAAISYIGGSTYYADSVKGRFTISRDNAKNTVYLQMNSLKPEDTAVYYCNAAVRYYDRTVSPVKFDYWGQGTQVTVSS | high polyreactivity
43 | QVQLVESGGGLVQAGGSLRLSCAASGRIFNQYGMGWYRQAPGKERELVAAIRSGDSTNYADSVKGRFTISRDNAKNTVYLQMNSLKPVDTAVYYFNAYLSPKQPLSPPDPTFEGGYWGQGTQVTVSS | low polyreactivity
